Assay results from patent US20100210517A1 (RAPTOR PHARMACEUTICAL, published 2010).

Columns and labels:
LRP2 CR2728 = biological target: T1, LRP2 CR2728 (human, UniProt P98164 3552-3631); assay: solid-phase assay on coated CR protein, each ligand at 80 nM, blank-corrected absorbance
T1 construct: domain: CR2728; Its cloning is not described in the methods; not shown: N-terminal hexahistidine and S-peptide tags of pET30(+)a
T1 sequence (looked up): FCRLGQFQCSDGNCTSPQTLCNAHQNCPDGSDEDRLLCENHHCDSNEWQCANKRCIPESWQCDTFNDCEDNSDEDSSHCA
Procedure: (§1) Samples were tested twice, in duplicate, and values combined. Means and standard deviations were then calculated. Blank values obtained from wells incubated in the absence of ligand were used to correct absorbance data.
(§2) Solid phase binding assays-Purified, refolded CR protein (1 μg) was bound to Nunc Maxisorp™ 96-well plates in TBS pH 8 supplemented with 5 mM CaCl₂ (TBSC) overnight at 4° C. Wells were washed with TBSC and then blocked with TBSC containing 2% bovine serum albumin (BSA). […] Control wells contained no added ligand. As an additional control, to determine whether the absence of calcium affected binding, 10 mM EGTA was included in the incubation medium for some samples. […] Excess primary antibody was removed and wells washed before incubation with the secondary antibody, HRP-conjugated goat anti rabbit IgG (Bio-Rad). After washing, TMB substrate solutions (Bio-Rad) were added to detect HRP. Color development was stopped with 1N HCl. Absorption at 450 nm was measured with a microplate spectrophotometer (Molecular Devices). Data were plotted and Kd values derived by non-linear regression with the assumption of single-site binding (GraphPad Prism).

LRP2 CR34-36 = biological target: T2, LRP2 CR34-36 (human, UniProt P98164 3841-3963); assay: as above
T2 construct: domain: CR34-36; not shown: N-terminal hexahistidine and S-peptide tags of pET30(+)a
T2 sequence (P98164 3841-3963): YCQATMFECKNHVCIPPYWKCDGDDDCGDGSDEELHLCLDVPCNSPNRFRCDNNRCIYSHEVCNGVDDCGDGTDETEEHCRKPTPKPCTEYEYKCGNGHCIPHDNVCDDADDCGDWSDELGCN
Procedure: as §1, §2

LRP2 CR3536 = biological target: T3, LRP2 CR3536 (human, UniProt P98164 3882-3963); assay: as above
T3 construct: domain: CR3536; not shown: N-terminal hexahistidine and S-peptide tags of pET30(+)a
T3 sequence (P98164 3882-3963): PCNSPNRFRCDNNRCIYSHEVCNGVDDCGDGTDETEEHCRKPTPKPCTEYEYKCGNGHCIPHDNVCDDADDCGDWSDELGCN
Procedure: as §1, §2

MAT CR12 = biological target: T4, MAT CR12 (human, UniProt Q9Y5Y6 452-524); assay: as above
T4 construct: also called ST14 CR12; matriptase CR12
T4 sequence: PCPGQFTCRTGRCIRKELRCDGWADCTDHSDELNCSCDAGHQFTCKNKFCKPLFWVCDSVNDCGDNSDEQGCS
Procedure: as §1, §2

LRP2 CR3031 = biological target: T5, LRP2 CR3031 (human, UniProt P98164 3677-3755); assay: as above
T5 construct: domain: CR3031; Its cloning is not described in the methods; not shown: N-terminal hexahistidine and S-peptide tags of pET30(+)a
T5 sequence (P98164 3677-3755): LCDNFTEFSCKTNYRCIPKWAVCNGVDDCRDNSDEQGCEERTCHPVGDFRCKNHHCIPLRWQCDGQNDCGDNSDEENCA
Procedure: as §1, §2

LRP2 CR89 = biological target: T6, LRP2 CR89 (human, UniProt P98164 1025-1102); assay: apparent Kd of the variant for the CR pair used in selection; no unit printed in Table 4, nM per Table 2 and paragraph 292
T6 construct: domain: CR89; also called YVWR; L2 CR89; not shown: N-terminal hexahistidine and S-peptide tags of pET30(+)a
T6 sequence (P98164 1025-1102): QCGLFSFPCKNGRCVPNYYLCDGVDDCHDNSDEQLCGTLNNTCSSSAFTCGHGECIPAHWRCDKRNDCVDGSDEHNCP

LRP2 CR89 R1088D = biological target: T7, LRP2 CR89 R1088D (human, UniProt P98164 1022-1105); assay: solid-phase assay; OD at the highest ligand concentration as percent of the highest OD of all ligands
T7 construct: also called YVWD
Procedure: as §2
To test this idea, mutant LRP2 CR89 were prepared in which the native, non-canonical residues at these positions were sequentially substituted with the non-native, canonical residues. As defined above, the A, C, A′, C′ string for LRP2 CR89 is YVWR. Mutants included LRP2 CR89 Y1042W (WVWR), LRP2 CR89 V1047D (YDWR), LRP2 CR89 R1088D (YVWD), LRP2 CR89 V1047D R1088D (YDWD), LRP2 CR89 Y1042W V1047D R1088D (WDWD), LRP2 CR89 Y1042W V1047D (WDWR), LRP2 CR89 Y1042W R1088D (WVWD).

- binding result (LRP2 CR2728): no binding (tested: 80 nM)
- binding result (LRP2 CR34-36): no binding (tested: 80 nM)
- binding result (LRP2 CR3536): no binding (tested: 80 nM)
- binding result (MAT CR12): no binding (tested: 80 nM)
- binding result (LRP2 CR3031): no binding (tested: 80 nM)
- Kd (LRP2 CR89): 38 nM
- % max bind (LRP2 CR89 R1088D): 55%
B1: MegaRAP1 d3 (ligand)
chain: LDRLRRVSHQGYTTEAKFEEPRVIDLWDLAQSANLTDKELEAFREELKYFKAKIEAHNHYQKQLEIAHEELRHAESVGDGERVSRSREKHALLEGRTKELGYTVKKHLQDLSGRISRAR
notes: V175L lies outside the d3 construct; also called RAPv2A d3; RAP v2 d3; not shown: N-terminal hexahistidine and S-peptide tags of pET30(+)a
